Assay results taken from FireProtDB (doi:10.1002/prot.10406).
Where “and” joins values, the source holds several entries; their conditions need not be identical. Equal values may be shown once.

Details: Homo sapiens, Urea, CD, phosphate citrate borate 2 mM 2 mM 2 mM, NaCl 10 mM, whole UniProt chain shown

B1: Alpha-lactalbumin wild type, P00709 (protein)
chain: MRFFVPLFLVGILFPAILAKQFTKCELSQLLKDIDGYGGIALPELICTMFHTSGYDTQAIVENNESTEYGLFQISNKLWCKSSQVPQSRNICDISCDKFLDDDITDDIMCAKKILDIKGIDYWLAHKALCTEKLEQWLCEKL
- denaturant m value (pH 2, 20 °C): 0.54 kcal/mol/M and 0.67 kcal/mol/M
- denaturant m value (pH 7, 2 °C, transition: 3): 0.95 kcal/mol/M and 0.55 kcal/mol/M
- denaturant midpoint (higher = more stable) (pH 7, 2 °C, transition: 3): 2.24 M and 2.34 M
- unfolding free energy (pH 7, 2 °C, transition: 3): 2.13 kcal/mol and 1.27 kcal/mol
